Laboratory results: patent US20260166084A1 (published 2026)

B1: iTAG1 (DCD23) (designed binder)
chain: PNVLMVHKRSHTGERPLQCEICGFTCRQKGNLLRHIKLHSGEKPFKCHLCNYACRRRDAL
B2: iTAG2 (DCD23mut) (designed binder)
chain: PNVLMVHNESHTGEIPLQCEICGFTCEQAGNLLNHIELHSGEIPFKCHLCNYACRRRDAL

What was measured:
[1] = target: complex formed between CRBN/DDB1 and pomalidomide (UniProt Q96SW2 1-442; Q16531 2-1140); experiment: TR-FRET displacement; pomalidomide
[2] = target: complex formed between CRBN/DDB1 and lenalidomide (UniProt Q96SW2 1-442; Q16531 2-1140); experiment: TR-FRET displacement; lenalidomide
complex formed between CRBN/DDB1 and lenalidomide, sequence (Q96SW2 whole entry, chain 1 of 2): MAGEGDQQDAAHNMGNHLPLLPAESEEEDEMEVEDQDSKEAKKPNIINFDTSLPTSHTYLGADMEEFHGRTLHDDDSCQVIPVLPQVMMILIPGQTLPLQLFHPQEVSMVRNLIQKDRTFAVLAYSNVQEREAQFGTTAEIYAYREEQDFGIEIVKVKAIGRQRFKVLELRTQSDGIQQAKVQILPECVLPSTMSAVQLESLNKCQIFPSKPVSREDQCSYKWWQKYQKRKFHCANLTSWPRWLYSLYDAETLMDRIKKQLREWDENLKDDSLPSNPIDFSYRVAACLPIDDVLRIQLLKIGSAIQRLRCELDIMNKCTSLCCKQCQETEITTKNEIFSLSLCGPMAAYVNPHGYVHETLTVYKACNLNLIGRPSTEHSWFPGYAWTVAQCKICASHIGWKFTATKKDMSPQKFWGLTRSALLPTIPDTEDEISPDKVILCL
complex formed between CRBN/DDB1 and lenalidomide, sequence (Q16531 2-1140, chain 2 of 2): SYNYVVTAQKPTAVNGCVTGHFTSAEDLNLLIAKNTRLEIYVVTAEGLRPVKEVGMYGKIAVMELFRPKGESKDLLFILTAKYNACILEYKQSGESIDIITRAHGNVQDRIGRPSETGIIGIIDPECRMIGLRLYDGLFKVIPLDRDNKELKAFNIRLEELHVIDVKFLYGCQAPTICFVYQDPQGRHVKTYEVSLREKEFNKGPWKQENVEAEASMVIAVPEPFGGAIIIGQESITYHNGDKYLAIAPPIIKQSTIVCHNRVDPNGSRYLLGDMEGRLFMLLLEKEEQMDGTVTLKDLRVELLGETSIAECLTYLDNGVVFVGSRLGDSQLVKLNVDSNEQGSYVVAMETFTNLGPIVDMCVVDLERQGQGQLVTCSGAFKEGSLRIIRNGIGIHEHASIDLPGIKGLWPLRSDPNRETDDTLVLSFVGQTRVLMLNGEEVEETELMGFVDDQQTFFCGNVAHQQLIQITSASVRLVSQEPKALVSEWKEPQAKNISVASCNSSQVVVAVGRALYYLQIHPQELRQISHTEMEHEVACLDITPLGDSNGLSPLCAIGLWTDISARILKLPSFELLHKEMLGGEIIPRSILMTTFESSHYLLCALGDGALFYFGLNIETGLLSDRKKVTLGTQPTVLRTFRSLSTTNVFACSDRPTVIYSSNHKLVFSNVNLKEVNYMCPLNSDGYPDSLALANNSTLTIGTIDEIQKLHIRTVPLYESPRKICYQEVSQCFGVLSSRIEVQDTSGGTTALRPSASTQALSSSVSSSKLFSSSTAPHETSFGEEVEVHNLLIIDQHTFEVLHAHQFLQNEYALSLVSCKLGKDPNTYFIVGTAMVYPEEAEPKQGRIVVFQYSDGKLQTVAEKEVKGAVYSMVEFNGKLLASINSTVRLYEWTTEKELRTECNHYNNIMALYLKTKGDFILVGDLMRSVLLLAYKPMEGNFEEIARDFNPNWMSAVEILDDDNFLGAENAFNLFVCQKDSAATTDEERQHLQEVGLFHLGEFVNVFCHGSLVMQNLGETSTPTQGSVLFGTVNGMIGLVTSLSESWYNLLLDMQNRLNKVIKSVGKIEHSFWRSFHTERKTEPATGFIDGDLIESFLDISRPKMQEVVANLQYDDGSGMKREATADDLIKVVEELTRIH

[3] = target: complex formed between CRBN/DDB1 and iberdomide (UniProt Q96SW2 1-442; Q16531 2-1140); experiment: TR-FRET displacement; iberdomide
complex formed between CRBN/DDB1 and iberdomide, sequence (Q96SW2 whole entry, chain 1 of 2): as the sequence (Q96SW2 whole entry, chain 1 of 2) above
complex formed between CRBN/DDB1 and iberdomide, sequence (Q16531 2-1140, chain 2 of 2): as the sequence (Q16531 2-1140, chain 2 of 2) above

complex formed between CRBN/DDB1 and pomalidomide, sequence (Q96SW2 whole entry, chain 1 of 2): as the sequence (Q96SW2 whole entry, chain 1 of 2) above
complex formed between CRBN/DDB1 and pomalidomide, sequence (Q16531 2-1140, chain 2 of 2): as the sequence (Q16531 2-1140, chain 2 of 2) above

Binder	IC50 [1]	IC50 [2]	IC50 [3]
B1	49.8 nM	78.7 nM	36.4 nM
B2	834 nM	860 nM	556 nM
